Assays:
[1] = substrate: O=P(O)(O)O[C@H]1O[C@H](CO)[C@@H](O)[C@H](O)[C@H]1O; test: coupled assay with glc-6-P dehydrogenase (NADP reduction); format: biochemical, Corynebacterium glutamicum; details: 100 mM Tris/HCl pH 7.4, 10 mM MgCl2, 1 mM NADP, 2 units glc-6-P dehydrogenase, glc-1-P 0.05–20 mM
[2] = molecular target: the molecule itself; test: SEC; HiLoad XK16/60 Superdex 200 PrepGrade, 0.02 M sodium phosphate, 0.15 M NaCl, pH 7.4, 0.5 ml/min; fractions screened by Pgm activity; retention volume compared with standard proteins (LMW and HMW calibration kits)

B1: phosphoglucomutase Pgm (main Pgm isoenzyme, encoded by pgm, cg2800) of Corynebacterium glutamicum (enzyme, UniProt Q8NMN0 1-554, looked up)
chain: MAHERAGQLAQPEDLIDVAELVTAYFTRKPDVNNPDQQVAFGTSGHRGSALDSAFNEDHILATTQAIVDYRNQQPKNWVGPLFIGRDTHALSEPAMISALEVLIANDVEVLVDADGRYTPTPAVSHAILRHNDGIILGTAGPSRPYADGIVITPSHNPPRDGGFKYNPANGGPADTDATDWIANRANDILRGDLADVKRVPVSGVLDERTTAYDFKGIYIADLPNVVNIDAIREAGVRIGADPMGGASVDYWGAIAETHGLNLTVVNPHVDSTFRFMTLDTDGKIRMDCSSPHAMASLIDNRDKFDVATGNDADADRHGIVTPDAGLMNPNHYLAVAIEYLFAHRPGWSADTAVGKTLVSSSMIDRVVAQLGRTLVEVPVGFKWFVPGLISGEIGFGGEESAGASFLRMDGTTWSTDKDGLILDLLAAEIIAVTGKTPSQRYAELAEEFGAPAYARTDAEANREQKAILKALSPEQVTATELAGEAITAKLTEAPGNGAAIGGLKVTTENAWFAARPSGTEDKYKIYAESFKGEEHLAQVQKEAQALVSEVLGQ
notes: Phosphoglucomutase Pgm of Corynebacterium glutamicum, ORF cg2800 (pgm), native enzyme; band of approx. 60 kDa on SDS/PAGE assigned to cg2800 by MALDI-TOF-MS peptide fingerprinting; Endogenous, untagged enzyme; the final gel filtration fraction still held a second band (approx. 80 kDa, cg2523, malQ); also called α-Pgm; pgm gene product
- Km [1]: 1410 ± 230 µM
- stoichiometry N [2]: 2
